Our source for the Kd and Km, cleavage of FITC-labelled β-casein (steady state kinetics) values is paper PMC3573033, “Allosteric Regulation of Serine Protease HtrA2 through Novel Non-Canonical Substrate Binding Pocket” (PLoS ONE, 2013).

The target of experiment [1] is T1, HtrA2 (High temperature requirement protease A2), mature (Δ133 HtrA2), wild type (UniProt O43464 134-458).
T1 construct: HtrA2 (High temperature requirement protease A2), mature form Δ133, 325 amino acids; numbers count on: the mature protein; source: E. coli BL21 (DE3) pLysS, purified (nickel-IDA, gel permeation chromatography)
T1 sequence (looked up): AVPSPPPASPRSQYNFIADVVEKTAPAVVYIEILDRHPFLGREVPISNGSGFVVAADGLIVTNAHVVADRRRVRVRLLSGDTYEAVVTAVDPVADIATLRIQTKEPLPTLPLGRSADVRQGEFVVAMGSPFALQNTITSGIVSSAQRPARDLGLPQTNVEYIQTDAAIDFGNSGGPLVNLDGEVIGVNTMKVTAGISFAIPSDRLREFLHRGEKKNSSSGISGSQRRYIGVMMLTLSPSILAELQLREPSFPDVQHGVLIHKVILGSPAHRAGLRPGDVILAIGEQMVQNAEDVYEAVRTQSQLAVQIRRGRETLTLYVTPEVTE
As to the kind of experiment: ITC; MicroCal ITC200; 200 µl of wild type or N216A/S219A HtrA2 (20 to 50 µM) in the cell, titrated with 1.5 µl injections of 0.4 mM activator peptide; 20 mM Na2HPO4/NaH2PO4, 100 mM NaCl, pH 7.8; 25°C; one site-binding model. The following applies: both partners purified. On the technique in general: In ITC the heat of successive injections is recorded.

Experiment [2] deals with HtrA2 N-SPD (N-terminal and serine protease domains, residues 1-210).
In experiment [3] the target is HtrA2 (High temperature requirement protease A2), mature (Δ133 HtrA2), wild type (UniProt O43464).

In the case of SEHRRHFPNCFFV [13mer activating peptide SEHRRHFPNCFFV], binding in experiment [1] was characterised by a dissociation constant (Kd) of 7.5 µM.

B1: FITC-labelled β-casein (natural protein)
chain: RELEELNVPGEIVESLSSSEESITRINKKIEKFQSEEQQQTEDELQDKIHPFAQTQSLVYPFPGPIPNSLPQNIPPLTQTPVVVPPFLQPEVMGVSKVKEAMAPKHKEMPFPKYPVEPFTESQSLTLTDVENLHLPLPLLQSWMHQPHQPLPPTVMFPPQSVLSLSQSKVLPVPQKAVPYPQRDMPIQAFLLYQEPVLGPVRGPFPIIV
modifications: FITC label
Consider B1, for which the Km, cleavage of FITC-labelled β-casein (steady state kinetics) in experiment [2] was 3.02 µM; in experiment [3], 4.59 µM.
